# T1: HLA-DQ2.2 on Ba/F3 cells (human, UniProt P01909 24-216, limits assumed)
# T1 construct: whole, on cells; also called Ba/F3-HLA-DQ2.2
# T1 MHC II alpha: not shown
# T1 MHC II beta: not shown
# T2: HLA-DQ8 on Ba/F3 cells (human, UniProt P01909 24-216; P01920 33-230, limits assumed)
# T2 construct: whole, on cells; also called Ba/F3-HLA-DQ8
# T2 MHC II alpha: not shown
# T2 MHC II beta: not shown
# T3: HLA-DQ7.3 on Ba/F3 cells (human, UniProt P01909 24-216; P01920 33-230, limits assumed)
# T3 construct: whole, on cells; also called Ba/F3-HLA-DQ7.3
# T3 MHC II alpha: not shown
# T3 MHC II beta: not shown
# Legend:
# [1] = target: DQ2.5/alpha 2 gliadin peptide on IHW9023 cells (human); assay: cell-based or functional assay
# [2] = target: DQ2.5/omega 2 gliadin peptide on IHW9023 cells (human); assay: cell-based or functional assay
# [3] = target: DQ2.5/gamma 1 gliadin peptide on IHW9023 cells (human); assay: cell-based or functional assay
# [4] = target: DQ2.5/BC hordein peptide on IHW9023 cells (human); assay: cell-based or functional assay
# [5] = target: T1, HLA-DQ2.2 on Ba/F3 cells; assay: FACS, Ba/F3 cells; IC17=0%, DQN0139bb=100%;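 also: flow cytometric binding of anti-HLA-DQ antibodies, each applied at 5 µg/mL for 30 min at room temperature, to Ba/F3 cell lines displaying HLA-DQ–peptide complexes; antibody tested at 5 microgram/mL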
# Description: (§1) The binding of anti-HLA-DQ antibodies to Ba/F3-HLA-DQ2.5, Ba/F3-HLA-DQ2.2, Ba/F3-HLA-DQ7.5, Ba/F3-HLA-DQ8, Ba/F3-HLA-DQ5.1, Ba/F3-HLA-DQ6.3, Ba/F3-HLA-DQ7.3, Ba/F3-HLA-DR, Ba/F3-HLA-DP, Ba/F3-HLA-DQ2.5/CLIP, Ba/F3-HLA-DQ2.5/HBV, Ba/F3-HLA-DQ2.5/Salmonella, Ba/F3-HLA-DQ2.5/TPO, Ba/F3-HLA-DQ2.5/M. bovis, Ba/F3-HLA-DQ2.5/alpha 1 gliadin, Ba/F3-HLA-DQ2.5/alpha 2 gliadin, Ba/F3-HLA-DQ2.5/gamma 1 gliadin, Ba/F3-HLA-DQ2.5/gamma 2 gliadin, Ba/F3-HLA-DQ2.5/omega 1 gliadin, Ba/F3-HLA-DQ2.5/omega 2 gliadin, Ba/F3-HLA-DQ2.5/BC hordein, Ba/F3-HLA-DQ2.5/alpha 3 gliadin, Ba/F3-HLA-DQ2.5/alpha 1b gliadin, Ba/F3-HLA-DQ2.5/gamma 4b gliadin, Ba/F3-HLA-DQ2.5/avenin 1, Ba/F3-HLA-DQ2.5/avenin 2, Ba/F3-HLA-DQ2.5/avenin 3, Ba/F3-HLA-DQ2.5/hordein 1, Ba/F3-HLA-DQ2.5/hordein 2, Ba/F3-HLA-DQ2.5/secalin 1, Ba/F3-HLA-DQ2.5/secalin 2, Ba/F3-HLA-DQ2.5/14mer 1, Ba/F3-HLA-DQ2.5/33mer gliadin, Ba/F3-HLA-DQ2.5/26mer gliadin, was tested. 5 microgram/mL of each of the anti-HLA-DQ antibodies was incubated with each cell line for 30 minutes at room temperature and washed with FACS buffer (2% FBS, 2 mM EDTA in PBS).
# [6] = target: T4, HLA-DQ7.5 on Ba/F3 cells (human, UniProt P01909 24-216; P01920 33-230, limits assumed); assay: FACS, Ba/F3 cells; IC17=0%, DQN0139bb=100%;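 also: flow cytometric binding of anti-HLA-DQ antibodies, each applied at 5 µg/mL for 30 min at room temperature, to Ba/F3 cell lines displaying HLA-DQ–peptide complexes; antibody tested at 5 microgram/mL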
# T4 construct: whole, on cells; also called Ba/F3-HLA-DQ7.5
# Description: as §1
# [7] = target: T2, HLA-DQ8 on Ba/F3 cells; assay: FACS, Ba/F3 cells; IC17=0%, DQN0139bb=100%;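 also: flow cytometric binding of anti-HLA-DQ antibodies, each applied at 5 µg/mL for 30 min at room temperature, to Ba/F3 cell lines displaying HLA-DQ–peptide complexes; antibody tested at 5 microgram/mL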
# Description: as §1
# [8] = target: T3, HLA-DQ7.3 on Ba/F3 cells; assay: FACS, Ba/F3 cells; IC17=0%, DQN0139bb=100%;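 also: flow cytometric binding of anti-HLA-DQ antibodies, each applied at 5 µg/mL for 30 min at room temperature, to Ba/F3 cell lines displaying HLA-DQ–peptide complexes; antibody tested at 5 microgram/mL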
# Description: as §1
# [9] = target: T5, HLA-DQ2.5/CLIP peptide complex on Ba/F3 cells (human); assay: FACS, Ba/F3 cells; IC17=0%, DQN0139bb=100%
# T5 construct: whole, on cells; also called Ba/F3-HLA-DQ2.5/CLIP
# Description: as §1
# [10] = target: T6, HLA-DQ2.5/33mer gliadin peptide complex on Ba/F3 cells (human); assay: FACS, Ba/F3 cells; IC17=0%, DQN0139bb=100%
# T6 construct: whole, on cells; also called Ba/F3-HLA-DQ2.5/33mer gliadin
# Description: as §1
# [11] = target: T7, HLA-DQ2.5/alpha 2 gliadin peptide complex on Ba/F3 cells (human); assay: FACS, Ba/F3 cells; IC17=0%, DQN0139bb=100%
# T7 construct: whole, on cells; also called Ba/F3-HLA-DQ2.5/alpha 2 gliadin; HLA-DQ2.5/a2 gliadin
# Description: as §1
# [12] = target: T8, HLA-DQ2.5/gamma 1 gliadin peptide complex on Ba/F3 cells (human); assay: FACS, Ba/F3 cells; IC17=0%, DQN0139bb=100%
# T8 construct: whole, on cells; also called Ba/F3-HLA-DQ2.5/gamma 1 gliadin; HLA-DQ2.5/g1 gliadin
# Description: as §1
# [13] = target: T9, HLA-DQ2.5/gamma 2 gliadin peptide complex on Ba/F3 cells (human); assay: FACS, Ba/F3 cells; IC17=0%, DQN0139bb=100%
# T9 construct: whole, on cells; also called Ba/F3-HLA-DQ2.5/gamma 2 gliadin; HLA-DQ2.5/g2 gliadin
# Description: as §1
# [14] = target: T10, HLA-DQ2.5/omega 1 gliadin peptide complex on Ba/F3 cells (human); assay: FACS, Ba/F3 cells; IC17=0%, DQN0139bb=100%
# T10 construct: whole, on cells; also called Ba/F3-HLA-DQ2.5/omega 1 gliadin; HLA-DQ2.5/w1 gliadin
# Description: as §1
# [15] = target: T11, HLA-DQ2.5/omega 2 gliadin peptide complex on Ba/F3 cells (human); assay: FACS, Ba/F3 cells; IC17=0%, DQN0139bb=100%
# T11 construct: whole, on cells; also called Ba/F3-HLA-DQ2.5/omega 2 gliadin; HLA-DQ2.5/w2 gliadin
# Description: as §1
# [16] = target: T12, HLA-DQ2.5/BC hordein peptide complex on Ba/F3 cells (human); assay: FACS, Ba/F3 cells; IC17=0%, DQN0139bb=100%
# T12 construct: whole, on cells; also called Ba/F3-HLA-DQ2.5/BC hordein
# Description: as §1
# [17] = target: T13, HLA-DQ2.5/alpha 3 gliadin peptide complex on Ba/F3 cells (human); assay: FACS, Ba/F3 cells; IC17=0%, DQN0139bb=100%
# T13 construct: whole, on cells; also called Ba/F3-HLA-DQ2.5/alpha 3 gliadin; HLA-DQ2.5/a3 gliadin
# Description: as §1
# [18] = target: T14, HLA-DQ2.5/alpha 1b gliadin peptide complex on Ba/F3 cells (human); assay: FACS, Ba/F3 cells; IC17=0%, DQN0139bb=100%
# T14 construct: whole, on cells; also called Ba/F3-HLA-DQ2.5/alpha 1b gliadin; HLA-DQ2.5/a1b gliadin
# Description: as §1
# [19] = target: T15, HLA-DQ2.5/gamma 4b gliadin peptide complex on Ba/F3 cells (human); assay: FACS, Ba/F3 cells; IC17=0%, DQN0139bb=100%
# T15 construct: whole, on cells; also called Ba/F3-HLA-DQ2.5/gamma 4b gliadin; HLA-DQ2.5/g4b gliadin
# Description: as §1
# [20] = target: T16, HLA-DQ2.5/avenin 1 peptide complex on Ba/F3 cells (human); assay: FACS, Ba/F3 cells; IC17=0%, DQN0139bb=100%
# T16 construct: whole, on cells; also called Ba/F3-HLA-DQ2.5/avenin 1
# Description: as §1
# [21] = target: T17, HLA-DQ2.5/avenin 2 peptide complex on Ba/F3 cells (human); assay: FACS, Ba/F3 cells; IC17=0%, DQN0139bb=100%
# T17 construct: whole, on cells; also called Ba/F3-HLA-DQ2.5/avenin 2
# Description: as §1
# [22] = target: T18, HLA-DQ2.5/avenin 3 peptide complex on Ba/F3 cells (human); assay: FACS, Ba/F3 cells; IC17=0%, DQN0139bb=100%
# T18 construct: whole, on cells; also called Ba/F3-HLA-DQ2.5/avenin 3
# Description: as §1
# [23] = target: T19, HLA-DQ2.5/hordein 1 peptide complex on Ba/F3 cells (human); assay: FACS, Ba/F3 cells; IC17=0%, DQN0139bb=100%
# T19 construct: whole, on cells; also called Ba/F3-HLA-DQ2.5/hordein 1
# Description: as §1
# [24] = target: T20, HLA-DQ2.5/hordein 2 peptide complex on Ba/F3 cells (human); assay: FACS, Ba/F3 cells; IC17=0%, DQN0139bb=100%
# T20 construct: whole, on cells; also called Ba/F3-HLA-DQ2.5/hordein 2
# Description: as §1
# [25] = target: T21, HLA-DQ2.5/secalin 1 peptide complex on Ba/F3 cells (human); assay: FACS, Ba/F3 cells; IC17=0%, DQN0139bb=100%
# T21 construct: whole, on cells; also called Ba/F3-HLA-DQ2.5/secalin 1
# Description: as §1
# [26] = target: T22, HLA-DQ2.5/secalin 2 peptide complex on Ba/F3 cells (human); assay: FACS, Ba/F3 cells; IC17=0%, DQN0139bb=100%
# T22 construct: whole, on cells; also called Ba/F3-HLA-DQ2.5/secalin 2
# Description: as §1
# [27] = target: T23, HLA-DQ2.5/14mer 1 peptide complex on Ba/F3 cells (human); assay: FACS, Ba/F3 cells; IC17=0%, DQN0139bb=100%
# T23 construct: whole, on cells; also called Ba/F3-HLA-DQ2.5/14mer 1
# Description: as §1
# [28] = target: T24, HLA-DQ2.5/26mer gliadin peptide complex on Ba/F3 cells (human); assay: FACS, Ba/F3 cells; IC17=0%, DQN0139bb=100%
# T24 construct: whole, on cells; also called Ba/F3-HLA-DQ2.5/26mer gliadin
# Description: as §1
# T4 sequence (P01920 33-230 limits assumed, chain 2 of 4, other chains not shown): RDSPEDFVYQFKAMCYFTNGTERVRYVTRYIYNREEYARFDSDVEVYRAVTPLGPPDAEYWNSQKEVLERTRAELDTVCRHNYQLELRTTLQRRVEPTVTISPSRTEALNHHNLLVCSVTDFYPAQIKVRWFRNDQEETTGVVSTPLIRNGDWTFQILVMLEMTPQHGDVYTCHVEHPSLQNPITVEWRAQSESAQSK
# T5 sequence (P04233 96-124, chain 2 of 2, other chains not shown): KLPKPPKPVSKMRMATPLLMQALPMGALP
binder,measurement,setting,value
"DQN0429cc (antibody, V domains shown, also called DQN0492cc) VH: QEQLVESGGGLVQPEGSLTLTCTASGFSFSSSYYMCWVRQAPGKGLEWIGCIYTGSGSTDYATWVNGRFTISKTSSTTVTLQMTSLTVADTATYFCARDIGIDYNFWGPGTLVTVSS VL: AFELTQTPSFVEARVGGTVTIKCQATQSISSYLNWYQQKPGQPPKLLIYYASTLASGVPSRFKGSGSGTEFTLTISGVECADAATYYCHYGISYVSFGGGTKVEIK","IC50, Jurkat NFAT-Luc T cell activation",[1],0.00497 µg/mL
same,"IC50, Jurkat NFAT-Luc T cell activation",[2],0.0215 µg/mL
same,"IC50, Jurkat NFAT-Luc T cell activation",[3],0.235 µg/mL
same,"IC50, Jurkat NFAT-Luc T cell activation",[4],0.786 µg/mL
same,% MFI,[5],0.7%
same,% MFI,[6],0.2%
same,% MFI,[7],0.2%
same,% MFI,[8],0.2%
same,% MFI,[9],0.2%
same,% MFI,[10],50.2%
same,% MFI,[11],67.7%
same,% MFI,[12],36.6%
same,% MFI,[13],6.2%
same,% MFI,[14],13.4%
same,% MFI,[15],45.5%
same,% MFI,[16],26.4%
same,% MFI,[17],9.4%
same,% MFI,[18],15.7%
same,% MFI,[19],13.6%
same,% MFI,[20],0.8%
same,% MFI,[21],2.9%
same,% MFI,[22],0.1%
same,% MFI,[23],4.5%
same,% MFI,[24],70.6%
same,% MFI,[25],11.8%
same,% MFI,[26],27.7%
same,% MFI,[27],58.5%
same,% MFI,[28],64%
